We go through two compounds from patent publication US20230390406A1, “Star Polymer Drug Conjugates” (Vaccitech North America, Inc., priority 2020, published 2023).

For data set [1] the following is noted: small molecule, not polymer-bound; cited from earlier work.
Data set [2] has as its system Compound AK, Ac-A′SK(Ac)SB-AMC.
In data set [3] the test system is Compound AM, Ac-A′VnL-AMC.
The test system of data set [4] is Compound AI, Ac-A′SPVB-AMC.
Data set [5] relates to Compound AL, Ac-A′SKSB-AMC.
The test system of data set [6] is Compound AP, Ac-A′SKSnL-AMC.
Data set [7] relates to Compound AJ, Ac-A′SK(Ac)VB-AMC.
Data set [8] concerns Compound AO, Ac-A′SK(Ac)SnL-AMC.
In data set [9] the test system is Compound AN, Ac-A′SPVnL-AMC.

For `CC(C)(CCN)C(=O)O` [DMBA, 4-amino-2,2-dimethylbutanoic acid], the pKa result in data set [1] is recorded as “about 4.8”.

With “cathepsin B (Sino Biological, protein human recombinant)”, the “cleavage of the peptide-AMC bond (HPLC, UV 350 nm, up to 6 hrs)” value is given as “showed significant stability in mouse plasma, but were readily cleaved in the presence of human cathepsin” in data set [2]; “found to be metabolized quickly in the presence of cathepsin B as well as mouse plasma” with Compound AH, Ac-A′VB-AMC; “found to be metabolized quickly in the presence of cathepsin B as well as mouse plasma” in data set [3]; “found to be metabolized quickly in the presence of cathepsin B as well as mouse plasma” in data set [4]; “showed significant stability in mouse plasma, but were readily cleaved in the presence of human cathepsin” in data set [5]; “showed significant stability in mouse plasma, but were readily cleaved in the presence of human cathepsin” in data set [6]. Also, the “cleavage of the peptide-AMC bond (HPLC, UV 350 nm, up to 6 hrs)” value in [7] is reported as “Compound AJ was relatively stable in both matrices”; in [8] it was “showed significant stability in mouse plasma, but were readily cleaved in the presence of human cathepsin”; in data set [9], “found to be metabolized quickly in the presence of cathepsin B as well as mouse plasma”.
